B1: 350 (protein)
chain: LDNGLARTPTMGWLHWERFMCNLDCQEEPDSCISEKLFMEMAERMVSEGWKDAGYEYLCIDDCWMAPQRDSEGRLQADPQRFPHGIRQLANYVHSKGLKFGIYADVGNKTCAGFPGSFGYYDIDAQTFADWGVDLLKFDGCYCDSLENLADGYKHMSLALNRTGRSIVYSCEWPLYMWPFQKPNYTEIRQYCNHWRNFADIDDSWASVKSILDWTSFNQETIVDVAGPGGWNDPDMLVIGNFGLSWDQQVTQMALWAIMAAPLFMSNDLRHISPQAKALLQDKDVIAINQDPLGKQGYQLRQGDNFEVWERPLSGLAWAVAVINRQEIGGPRSYTIAVASLGKGVACNPACFITQLLPVKRKLGFYNWTSRLKSHVNPTGTVLLQLENTMQMSLKDLL
modifications: Synthetic Polypeptide sequence of Variant No. 350 of mature Human GLA
B2: 358 (protein)
chain: B1 chain with V208I, Q302K, V322I, V376I
modifications: Synthetic Polypeptide sequence of Variant No. 358 of mature Human GLA
B3: 355 (protein)
chain: B1 chain with V208I, V322I, K343D
modifications: Synthetic Polypeptide sequence of Variant No. 355 of mature Human GLA
B4: 356 (protein)
chain: B1 chain with V208I, Q302K, V322I, V376I
modifications: Synthetic Polypeptide sequence of Variant No. 356 of mature Human GLA
B5: 357 (protein)
chain: B1 chain with V208I, Q302K
modifications: Synthetic Polypeptide sequence of Variant No. 357 of mature Human GLA
B6: 352 (protein)
chain: B1 chain with V208I, T221K, D247N, Q302K, V322I
modifications: Synthetic Polypeptide sequence of Variant No. 352 of mature Human GLA
B7: 351 (protein)
chain: B1 chain with D247N, Q302K, V322I
modifications: Synthetic Polypeptide sequence of Variant No. 351 of mature Human GLA
B8: 353 (protein)
chain: B1 chain with V208I, D247N, V322I, F365L
modifications: Synthetic Polypeptide sequence of Variant No. 353 of mature Human GLA
B9: 354 (protein)
chain: B1 chain with V208I, D247N, V322I, F365L, V376I
modifications: Synthetic Polypeptide sequence of Variant No. 354 of mature Human GLA
B10: 296 (protein)
chain: LDNGLARTPTMGWLHWERFMCNLDCQEEPDSCISEKLFMEMAELMVSEGWKDAGYEYLCIDDCWMTPQRDSEGRLQADPQRFPHGIRQLANYVHSKGLKLGIYADVGNKTCAGFPGSFGYYDIDAQTFADWGVDLLKFDGCYCDSLENLADGYKHMSLALNRTGRSIVYSCEWPLYMWPFQKPNYTEIRQYCNHWRNFADIDDSWASIKSILDWTSRNQERIVDVAGPGGWNDPDMLVIGNFGLSWNQQVTQMALWAIMAAPLFMSNDLRHISPQAKALLQDKDVIAINQDPLGKQGYQLRQGDNFEVWERPLSGDAWAVAIINRQEIGGPRSYTIPVASLGGGVACNPGCFITQLLPVKRKLGFYNWTSRLKSHINPTGTVLLQLENTMQMSLKDLL
modifications: Synthetic Polypeptide sequence of Variant No. 296 of mature Human GLA

Where a chain is given by its changes, count along the chain named.

The first data set in a line: HTP-analysis of yeast culture supernatants, no challenge (MUGal hydrolysis). The format is biochemical. As to conditions: activity of the variant/activity of Rd3BB (SEQ ID NO: 13), yeast culture supernatant. The gist of the method:
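GLA variants were expressed in INVSc1 yeast grown in SD-Ura broth with glucose at 30° C., and culture supernatants were collected after 66-84 h. Supernatant was mixed with McIlvaine buffer pH 4.8 and MUGal (2 mM stock) in 50 mM citrate, 200 mM KCl, pH 4.6, incubated at 37° C. for 30-180 minutes, then quenched with sodium carbonate.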
With B1, the “Relative Activity of GLA Variants After No Challenge (NC)” value was “+ (+ = 0.5 to 1.5 relative activity over Rd3BB (SEQ ID NO: 13))”.
B2: the “Relative Activity of GLA Variants After No Challenge (NC)” value is listed as “+ (+ = 0.5 to 1.5 relative activity over Rd3BB (SEQ ID NO: 13))”.
For B3, the “Relative Activity of GLA Variants After No Challenge (NC)” value is “+ (+ = 0.5 to 1.5 relative activity over Rd3BB (SEQ ID NO: 13))”.
Regarding B4, the “Relative Activity of GLA Variants After No Challenge (NC)” value is given as “+ (+ = 0.5 to 1.5 relative activity over Rd3BB (SEQ ID NO: 13))”.
Still for that read-out and setting: the result for B5 reads “+ (+ = 0.5 to 1.5 relative activity over Rd3BB (SEQ ID NO: 13))”.
In the case of B6, the “Relative Activity of GLA Variants After No Challenge (NC)” value is reported as “+ (+ = 0.5 to 1.5 relative activity over Rd3BB (SEQ ID NO: 13))”.
In the case of B7, the “Relative Activity of GLA Variants After No Challenge (NC)” value is on record as “+ (+ = 0.5 to 1.5 relative activity over Rd3BB (SEQ ID NO: 13))”.
The same measure, in the same setting: under B8 stands “− (− = <0.5 relative activity to Rd3BB (SEQ ID NO: 13))”; under B9, “− (− = <0.5 relative activity to Rd3BB (SEQ ID NO: 13))”; under B10, “+ (+ = 0.5 to 1.5 relative activity over Rd3BB (SEQ ID NO: 13))”.

A further data set can be described thus: HTP-analysis of supernatants pretreated with acid (MUGal hydrolysis). The format is biochemical. Conditions: challenge at pH 4.0; activity of the variant/activity of Rd3BB (SEQ ID NO: 13); yeast culture supernatant. The gist of the method: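 Supernatants from INVSc1 yeast secreting GLA variants were challenged at 37° C. for 1-3 h in McIlvaine buffer at pH 3.3-4.3. Residual activity was then measured on 4 mM MUGal substrate stock at pH 4.8 with citrate buffer pH 4.3, over 30-180 min at 37° C. Reactions were quenched with sodium carbonate and read by fluorescence (Ex 355/Em 448 nm).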
Regarding B1, the “Relative Activity of GLA Variants After Challenge at pH 4.0” value (shortened to “Relative Activity … at pH 4.0”) is “++ (++ = >1.5 to 2.5 relative activity over Rd3BB (SEQ ID NO: 13))”.
Still for that read-out and setting: under B2 stands “+ (+ = 0.5 to 1.5 relative activity over Rd3BB (SEQ ID NO: 13))”.
B3: the “Relative Activity … at pH 4.0” value is recorded as “++ (++ = >1.5 to 2.5 relative activity over Rd3BB (SEQ ID NO: 13))”.
For B4, the “Relative Activity … at pH 4.0” value was “+ (+ = 0.5 to 1.5 relative activity over Rd3BB (SEQ ID NO: 13))”.
The same measure, in the same setting: under B5 stands “++ (++ = >1.5 to 2.5 relative activity over Rd3BB (SEQ ID NO: 13))”.
B6: the “Relative Activity … at pH 4.0” value is recorded as “+ (+ = 0.5 to 1.5 relative activity over Rd3BB (SEQ ID NO: 13))”.
The same measure, in the same setting: the result for B7 reads “+ (+ = 0.5 to 1.5 relative activity over Rd3BB (SEQ ID NO: 13))”; that for B8, “− (− = <0.5 relative activity to Rd3BB (SEQ ID NO: 13))”.
Regarding B9, the “Relative Activity … at pH 4.0” value is on record as “+ (+ = 0.5 to 1.5 relative activity over Rd3BB (SEQ ID NO: 13))”.
B10: the “Relative Activity … at pH 4.0” value is listed as “− (− = <0.5 relative activity to Rd3BB (SEQ ID NO: 13))”.

A short description of a further data set: HTP-analysis of supernatants pretreated with base (MUGal hydrolysis). The format is biochemical. As to conditions: challenge at pH 8.2; activity of the variant/activity of Rd3BB (SEQ ID NO: 13); yeast culture supernatant. The gist of the method:
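Fluorescence of released 4-MU (Ex 355 nm, Em 448 nm) after carbonate quench reports MUGal hydrolysis by GLA variants secreted from INVSc1 yeast. Before the acidic (pH 4.3-4.8) 30-180 min reaction at 37° C, supernatants had been pre-incubated at pH 7.0-9.7 for 1-18 h at 37° C.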
With B1, the “Relative Activity of GLA Variants After Challenge at pH 8.2” value (from here on “Relative Activity … at pH 8.2”) is on record as “+++ (+++ = >2.5 relative activity over Rd3BB (SEQ ID NO: 13))”.
As to B2, the “Relative Activity … at pH 8.2” value was “++ (++ = >1.5 to 2.5 relative activity over Rd3BB (SEQ ID NO: 13))”.
As to B3, the “Relative Activity … at pH 8.2” value is reported as “++ (++ = >1.5 to 2.5 relative activity over Rd3BB (SEQ ID NO: 13))”.
On the same count and under the same terms, under B4 stands “++ (++ = >1.5 to 2.5 relative activity over Rd3BB (SEQ ID NO: 13))”.
Turning to B5, the “Relative Activity … at pH 8.2” value is reported as “+++ (+++ = >2.5 relative activity over Rd3BB (SEQ ID NO: 13))”.
On the same count and under the same terms, under B6 stands “+ (+ = 0.5 to 1.5 relative activity over Rd3BB (SEQ ID NO: 13))”; under B7, “++ (++ = >1.5 to 2.5 relative activity over Rd3BB (SEQ ID NO: 13))”.
As for B8, the “Relative Activity … at pH 8.2” value is listed as “− (− = <0.5 relative activity to Rd3BB (SEQ ID NO: 13))”.
As for B9, the “Relative Activity … at pH 8.2” value was “+ (+ = 0.5 to 1.5 relative activity over Rd3BB (SEQ ID NO: 13))”.
Regarding B10, the “Relative Activity … at pH 8.2” value is given as “− (− = <0.5 relative activity to Rd3BB (SEQ ID NO: 13))”.

A short description of another data set: HTP-analysis of supernatants pretreated with bovine serum (MUGal hydrolysis). As to conditions: activity of the variant/activity of Rd3BB (SEQ ID NO: 13), yeast culture supernatant. The format is biochemical. The essentials: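 Yeast INVSc1 culture supernatants containing secreted GLA variants were mixed with bovine serum (20:80) and held 1 h at 37° C. Serum-treated samples then reacted with MUGal (4 mM stock) in citrate/McIlvaine buffer (pH 4.3/4.8) for 180 min at 37° C., were quenched with sodium carbonate, and read by fluorescence (Ex 355, Em 448 nm).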
As to B1, the “Relative Activity of GLA Variants After Challenge with Serum” value (from here on “Relative Activity … with Serum”) is “+ (+ = 0.5 to 1.5 relative activity over Rd3BB (SEQ ID NO: 13))”.
On to B2, for which the “Relative Activity … with Serum” value is “+ (+ = 0.5 to 1.5 relative activity over Rd3BB (SEQ ID NO: 13))”.
Regarding B3, the “Relative Activity … with Serum” value is given as “+ (+ = 0.5 to 1.5 relative activity over Rd3BB (SEQ ID NO: 13))”.
Turning to B4, the “Relative Activity … with Serum” value is listed as “+ (+ = 0.5 to 1.5 relative activity over Rd3BB (SEQ ID NO: 13))”.
As for B5, the “Relative Activity … with Serum” value is “+ (+ = 0.5 to 1.5 relative activity over Rd3BB (SEQ ID NO: 13))”.
Take B6: the “Relative Activity … with Serum” value is recorded as “+ (+ = 0.5 to 1.5 relative activity over Rd3BB (SEQ ID NO: 13))”.
Take B7: the “Relative Activity … with Serum” value is recorded as “+ (+ = 0.5 to 1.5 relative activity over Rd3BB (SEQ ID NO: 13))”.
As to B8, the “Relative Activity … with Serum” value is “+ (+ = 0.5 to 1.5 relative activity over Rd3BB (SEQ ID NO: 13))”.
In the case of B9, the “Relative Activity … with Serum” value is given as “+ (+ = 0.5 to 1.5 relative activity over Rd3BB (SEQ ID NO: 13))”.
With B10, the “Relative Activity … with Serum” value was “+ (+ = 0.5 to 1.5 relative activity over Rd3BB (SEQ ID NO: 13))”.
